Key:
[1] = target: T1, recombinant rat CTGF protein (R&D Systems) (rat, UniProt Q9R1E9 25-347); assay: ELISA, coated target
T1 construct: Bought; also called rCTGF
T1 sequence: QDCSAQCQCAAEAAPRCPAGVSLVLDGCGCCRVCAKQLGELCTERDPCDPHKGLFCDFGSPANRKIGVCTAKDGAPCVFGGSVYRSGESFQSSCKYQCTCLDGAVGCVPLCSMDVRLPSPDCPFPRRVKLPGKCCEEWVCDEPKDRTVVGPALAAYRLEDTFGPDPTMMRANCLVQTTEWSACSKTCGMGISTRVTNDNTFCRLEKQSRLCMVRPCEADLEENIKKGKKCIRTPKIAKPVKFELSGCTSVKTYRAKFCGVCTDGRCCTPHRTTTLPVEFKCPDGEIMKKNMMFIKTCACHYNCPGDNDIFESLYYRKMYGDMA

[2] = target: T2, recombinant human CTGF protein (R&D Systems, SEQ ID NO: 79) (human, UniProt P29279 27-349); assay: ELISA, coated target
T2 construct: Bought; also called human CTGF/CNN2; huCTGF
T2 sequence: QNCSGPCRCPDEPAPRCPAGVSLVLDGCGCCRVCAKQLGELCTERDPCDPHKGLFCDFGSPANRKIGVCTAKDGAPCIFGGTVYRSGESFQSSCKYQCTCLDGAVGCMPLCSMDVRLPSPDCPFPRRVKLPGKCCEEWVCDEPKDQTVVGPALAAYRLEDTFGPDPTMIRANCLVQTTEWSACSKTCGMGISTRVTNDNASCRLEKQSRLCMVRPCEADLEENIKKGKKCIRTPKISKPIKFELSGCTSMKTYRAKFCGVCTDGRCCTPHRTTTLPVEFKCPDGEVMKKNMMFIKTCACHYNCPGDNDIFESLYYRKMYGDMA

[3] = target: T3, murine CTGF (Biozol, SEQ ID NO: 80) (murine); assay: ELISA, coated target
T3 construct: Bought; also called muCTGF

[4] = target: T4, huCTGF domains 1 and 2 with human Fc tag (human); assay: ELISA, coated target
T4 construct: Made by Evitria; also called Human CTGF1-2-huFc

[5] = target: T5, muCTGF domains 1 and 2 with human Fc tag (murine); assay: ELISA, coated target
T5 construct: Made by Evitria; also called Murine CTGF1-2-huFc

huCYR61 = target: T6, huCYR61 (human, UniProt O00622 25-381, limits assumed); assay: ELISA, coated CCN protein
T6 construct: also called human CYR61 (CCN1)
T6 sequence (looked up): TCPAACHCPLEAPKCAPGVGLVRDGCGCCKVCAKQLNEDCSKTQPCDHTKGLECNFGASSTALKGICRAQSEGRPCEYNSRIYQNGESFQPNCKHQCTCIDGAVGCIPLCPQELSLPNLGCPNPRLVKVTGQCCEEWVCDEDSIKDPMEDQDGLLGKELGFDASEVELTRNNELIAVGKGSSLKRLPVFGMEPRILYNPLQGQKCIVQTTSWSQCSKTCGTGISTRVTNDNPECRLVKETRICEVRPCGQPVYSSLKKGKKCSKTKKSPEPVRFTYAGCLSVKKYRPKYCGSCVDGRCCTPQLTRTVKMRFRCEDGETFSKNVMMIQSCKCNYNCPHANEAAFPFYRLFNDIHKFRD
Method in brief: (§1)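 Plates coated with each CCN protein at 1 μg/ml overnight at 4 °C, blocked with PBS-T/BSA, then serially diluted muteins from 1000 nM bound 1 h at RT. Detection with HRP anti-NGAL or anti-Strep-Tag and fluorogenic substrate; cross-reactivity judged when the CTGF signal neared saturation.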

huWISP-2 = target: T7, huWISP-2 (human, UniProt O76076 24-250, limits assumed); assay: ELISA, coated CCN protein
T7 construct: also called human WISP-2 (CCN5)
T7 sequence (looked up): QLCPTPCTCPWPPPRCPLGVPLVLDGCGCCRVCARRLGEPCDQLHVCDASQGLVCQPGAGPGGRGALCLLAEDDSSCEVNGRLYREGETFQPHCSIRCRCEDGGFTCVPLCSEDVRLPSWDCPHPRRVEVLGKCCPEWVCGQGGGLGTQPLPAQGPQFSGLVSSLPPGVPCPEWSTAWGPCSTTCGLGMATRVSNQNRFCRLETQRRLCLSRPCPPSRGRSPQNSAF
Method in brief: as §1

T5 sequence (chain, as listed by the source limits assumed): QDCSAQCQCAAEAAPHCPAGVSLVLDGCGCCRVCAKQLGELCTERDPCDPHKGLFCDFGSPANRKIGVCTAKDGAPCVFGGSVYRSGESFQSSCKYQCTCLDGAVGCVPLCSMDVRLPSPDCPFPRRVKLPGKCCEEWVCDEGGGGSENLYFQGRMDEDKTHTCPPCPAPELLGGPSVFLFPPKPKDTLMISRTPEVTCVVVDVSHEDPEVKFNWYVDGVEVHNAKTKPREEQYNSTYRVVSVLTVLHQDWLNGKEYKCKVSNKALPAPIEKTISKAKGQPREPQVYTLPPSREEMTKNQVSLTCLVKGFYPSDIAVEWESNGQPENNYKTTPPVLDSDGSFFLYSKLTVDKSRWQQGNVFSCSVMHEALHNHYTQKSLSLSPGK

B1: lipocalin mutein of SEQ ID NO: 7 (designed binder)
chain: QDSTSDLIPAPPLSKVPLQQNFQDNQFHGKWYVVGLAGNYGLRTDKRPSKMFATIYELKEDKSYDVTSVRFEQERCHYTIRTFVPGSQPGEFTTGSIKSRPGQTSSLVRVVSTNYNQHAMVFFKSVIQNREYFAITLYGRTKELTSELKENFIRFSKSLGLPENHIVFPVPIDQCIDGSAWSHPQFEK
notes: Parent hNGAL mutein; also called hNGAL mutein
EC50 [1]: 41 nM
EC50 [2]: 34 nM
EC50 [3]: 29 nM
EC50 [4]: 17 nM
EC50 [5]: 14 nM
binding result (huCYR61): no binding (tested: dilutions starting at 1000 nM)
binding result (huWISP-2): no binding (tested: dilutions starting at 1000 nM)

B2: lipocalin mutein of SEQ ID NO: 29 (designed binder)
chain: QDSTSDLIPAPPLSKVPLQQNFQDNQFHGKWYVVGWAGNIKLREDKDPFKMSATIYELKEDKSYNVTEVVFEQKKCHYIIKTFVPGSQPGEFTLGDIKSPPGETSSLVRVVSTNYNQHAMVFFKKVFQNREFFWITLYGRTKELTSELKENFIRFSKSLGLPENHIVFPVPIDQCIDGSAWSHPQFEK
notes: as for B1
EC50 [1]: 20 nM
EC50 [2]: 11 nM
binding result [3]: no binding (tested: dilutions starting at 1000 nM)
EC50 [4]: 8.4 nM
EC50 [5]: 17 nM
binding result (huCYR61): no binding (tested: dilutions starting at 1000 nM)
binding result (huWISP-2): no binding (tested: dilutions starting at 1000 nM)

B3: lipocalin mutein of SEQ ID NO: 9 (designed binder)
chain: QDSTSDLIPAPPLSKVPLQQNFQDNQFHGKWYVVGLAGNKILRIDKQPAKMFATIYELKEDKSYDVTSVRFEARSCSYTIKTFVPGSQPGEFTAGNIKSAPGQTSTLVRVVSTNYNQHAMVFFKHVSQNRETFVITLYGRTKELTSELKENFIRFSKSLGLPENHIVFPVPIDQCIDGSAWSHPQFEK
notes: as for B1
EC50 [1]: 30 nM
EC50 [2]: 14 nM
EC50 [3]: 11 nM
EC50 [4]: 8 nM
EC50 [5]: 5.8 nM
binding result (huCYR61): no binding (tested: dilutions starting at 1000 nM)
binding result (huWISP-2): no binding (tested: dilutions starting at 1000 nM)

B4: lipocalin mutein of SEQ ID NO: 25 (designed binder)
chain: QDSTSDLIPAPPLSKVPLQQNFQDNQFHGKWYVVGMAGNFRLREDKDPSKMGATIYELKEDKSYNVTQVQFDDKKCLYVIETFVPGSQPGEFTLGAIKSFPGFTSQLVRVVSTNYNQHAMVFFKKVYQNREVFWITLYGRTKELTSELKENFIRFSKSLGLPENHIVFPVPIDQCIDGSAWSHPQFEK
notes: as for B1
EC50 [1]: 23 nM
EC50 [2]: 11 nM
binding result [3]: no binding (tested: dilutions starting at 1000 nM)
EC50 [4]: 8.8 nM
EC50 [5]: 14 nM
binding result (huCYR61): no binding (tested: dilutions starting at 1000 nM)
binding result (huWISP-2): no binding (tested: dilutions starting at 1000 nM)

B5: lipocalin mutein of SEQ ID NO: 3 (designed binder)
chain: QDSTSDLIPAPPLSKVPLQQNFQDNQFHGKWYVVGRAGNNRLREDKDPPKMWATIYELKEDKSYNVTHVHFMTKKCRYIIDTFVPGSQPGEFTLGAIKSGPGMTSPLVRIVSTNYNQHAMVFFKWVNQNREWFTITLYGRTKELTSELKENFIRFSKSLGLPENHIVFPVPIDQCIDGSAWSHPQFEK
notes: as for B1
EC50 [2]: 6.9 nM
binding result [4]: no binding (tested: dilutions starting at 1000 nM)
binding result [5]: no binding (tested: dilutions starting at 1000 nM)
binding result (huCYR61): no binding (tested: dilutions starting at 1000 nM)
binding result (huWISP-2): no binding (tested: dilutions starting at 1000 nM)

B6: lipocalin mutein of SEQ ID NO: 15 (designed binder)
chain: QDSTSDLIPAPPLSKVPLQQNFQDNQFQGKWYVVGLAGNAILREDKQPAKMFATIYELKEDKSYDVTSVRFEAKSCKYTIKTFVPGSQPGEFTAGYIKSAPGQTSTLVRVVSTNYNQHAMVFFKHVTQNREIFVITLYGRTKELTSELKENFIRFSKSLGLPENHIVFPVPIDQCIDG
notes: also called hNGAL mutein; not shown: C-terminal His-tag
binding result (huCYR61): no binding (tested: dilutions starting at 1000 nM)
binding result (huWISP-2): no binding (tested: dilutions starting at 1000 nM)
